The text below walks through data of PMC2834951 (Nature structural & molecular biology, 2009).

By stoichiometry N is commonly meant a count of units in the complex or per binding partner.

One series concerns the target T1, human Ubc13 (human, UniProt P61088 1-152).
T1 sequence (looked up): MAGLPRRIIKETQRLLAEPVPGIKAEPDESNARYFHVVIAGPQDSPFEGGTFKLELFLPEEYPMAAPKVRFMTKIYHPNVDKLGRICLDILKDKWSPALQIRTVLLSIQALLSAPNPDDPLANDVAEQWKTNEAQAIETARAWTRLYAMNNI
As to the kind of experiment: SEC. A general note: SEC sorts molecules by how far they enter the pores of the column.

The series “SAXS” concerns the molecule itself. The series can be described thus: SAXS.

B1: human TRAF6 RZ1 (residues 50-159) (domain or fragment, UniProt Q9Y4K3 50-159, looked up)
chain: MEEIQGYDVEFDPPLESKYECPICLMALREAVQTPCGHRFCKACIIKSIRDAGHKCPVDNEILLENQLFPDNFAKREILSLMVKCPNEGCLHKMELRHLEDHQAHCEFAL
As for B1, the binding result with human Ubc13 is recorded as “binds”.

B2: human TRAF6 RZ12 (residues 50-187) (domain or fragment, UniProt Q9Y4K3 50-187, looked up)
chain: MEEIQGYDVEFDPPLESKYECPICLMALREAVQTPCGHRFCKACIIKSIRDAGHKCPVDNEILLENQLFPDNFAKREILSLMVKCPNEGCLHKMELRHLEDHQAHCEFALMDCPQCQRPFQKFHINIHILKDCPRRQV
For the molecule B2, in the series with human Ubc13, the binding result was “binds”.

B3: human TRAF6 RZ123 (residues 50-211), wild type (domain or fragment, UniProt Q9Y4K3 50-211, looked up)
chain: MEEIQGYDVEFDPPLESKYECPICLMALREAVQTPCGHRFCKACIIKSIRDAGHKCPVDNEILLENQLFPDNFAKREILSLMVKCPNEGCLHKMELRHLEDHQAHCEFALMDCPQCQRPFQKFHINIHILKDCPRRQVSCDNCAASMAFEDKEIHDQNCPLA
B3: the “stoichiometry N” value in the series “SAXS” was 2.
